Assay results reported in patent US6849441.

Target: protease TCES (hyperthermostable protease derived from Thermococcus celer), enzyme preparation (Thermococcus celer)
Assay: cell-based or functional assay

Sequence of protease TCES (hyperthermostable protease derived from Thermococcus celer), enzyme preparation (Thermococcus celer) (chain, as listed by the source limits assumed): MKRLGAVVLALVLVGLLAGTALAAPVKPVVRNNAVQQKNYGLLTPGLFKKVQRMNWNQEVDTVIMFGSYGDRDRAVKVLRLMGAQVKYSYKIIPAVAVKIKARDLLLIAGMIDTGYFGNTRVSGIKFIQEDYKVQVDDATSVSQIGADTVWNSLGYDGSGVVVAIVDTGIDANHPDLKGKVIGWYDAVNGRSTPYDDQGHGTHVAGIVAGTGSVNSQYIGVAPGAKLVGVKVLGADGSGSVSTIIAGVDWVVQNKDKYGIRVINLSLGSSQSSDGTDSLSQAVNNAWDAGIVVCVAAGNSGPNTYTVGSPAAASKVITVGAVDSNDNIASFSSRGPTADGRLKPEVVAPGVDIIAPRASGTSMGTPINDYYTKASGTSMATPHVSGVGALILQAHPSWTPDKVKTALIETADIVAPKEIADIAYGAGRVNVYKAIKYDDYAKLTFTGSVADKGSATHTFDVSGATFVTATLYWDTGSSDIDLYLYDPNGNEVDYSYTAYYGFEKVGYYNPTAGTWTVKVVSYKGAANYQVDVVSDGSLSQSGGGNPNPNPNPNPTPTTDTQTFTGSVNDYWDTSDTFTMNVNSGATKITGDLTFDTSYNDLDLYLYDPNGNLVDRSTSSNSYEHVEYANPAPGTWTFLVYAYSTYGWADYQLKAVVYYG

Substance | enzyme activity compared with control without reagent, after treatment at 37° C. for 30 minutes with 1 mM reagent
Leupeptin (peptide) | 104%
Antipain (peptide) | 19%
Chymostatin (peptide) | 0%
Pepstatin (peptide) | 105%
